Experimental findings from patent US20250276076A1, “ANTI-ALPP/ALPPL2 ANTIBODIES AND ANTIBODY-DRUG CONJUGATES” (SEAGEN INC., priority 2021, published 2025) are described below.

This assay relates to ALPP/ALPPL2-expressing HEK293 cells. As to the kind of experiment: Flow cytometry and saturation binding of mouse antibodies. On the set-up: species or system human. Conditions: flow cytometry. The method, then: Cynomolgus ALPP, human ALPP, ALPPL2, ALPI and ALPL-expressing HEK293 cells were used to evaluate specificity and binding affinity. Briefly, one hundred thousand target-expressing HEK293 cells were transferred to 96-well plates. Cells were pelleted by centrifugation and resuspended in 100 μL of PBS+2% w/v BSA. After blocking, cells were resuspended in PBS+2% w/v BSA with unlabeled monoclonal anti-ALPP/ALPPL2 antibodies ranging in concentration from 8 pM to 666 nM and incubated on ice for 30 minutes. Cells were washed twice in PBS and resuspended in R-PE labeled secondary goat anti-human or anti-mouse antibodies (Jackson Immunoresearch, West Grove, PA) for 30 minutes on ice. Specificity of monoclonal antibodies for human and cynomolgus ALPP and ALPPL2, but not other members of this alkaline phosphatase family was confirmed by flow cytometry. Fluorescence was analyzed using an Attune NxT flow cytometer, and the percent of saturated fluorescent signal was used to determine percent bound and to subsequently calculate apparent KD.
Background: A flow cytometer gives signals particle by particle.

B1: 12F3: murine anti-ALPP/ALPPL2 monoclonal antibody selected for humanization (antibody, V domains shown)
VH: EVKLVESGGGLVQPGGSLSLSCAASGFTFTDYYMSWVRQPPGKALEWLALIRNKATGYTTEYSASVKGRFTISRDNSQSILYLQMNALRAEDSATYYCARASFYYDGKVLAYWGQGTLVTVSA
VL: DTQMTQSPSSLSASLGGKVTITCKASQDINKYIAWYQYKTGKGPRLLIHYTSTLQPGIPSRFSGSGSGRDYSFSISNLEPEDIATYYCLQYDNLYTFGGGTKLEIK
Take B1: the “saturation levels for ALPP” value was “higher saturation levels for ALPP than SG84-1F7”.
